± gives the standard deviation of the averaged measurements.
The sequences below were run on Saccharomyces cerevisiae (assay: protein stability index of tFT-peptide fusion (C-terminal peptide) (PSI (0-1 scale)); higher = more stable (slower turnover)). Conditions: genetic background: das1 deletion; temperature: 30 C.
Procedure: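 MPS profiling in S. cerevisiae of the tFT-X12 degron library: putative degron peptides plus stable controls, 12 aa, fused to the C-terminus of a sfGFP-mCherry timer. Cells are FACS-sorted into 8 mCherry/sfGFP bins and deep-sequenced. PSI runs from 0 (unstable) to 1 (stable). Backgrounds are wild type, das1Δ and doa10Δ at 30 °C, and wild type, das1Δ, cdc34-1 and cdc53-1 at 37 °C; 2-3 technical replicates each.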
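Note: PSI is a weighted mean of sequencing reads over stability bins, variants kept only with over 10 reads, mCherry proximal and sfGFP distal, peptide attached via GGGS linker.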

Row | Sequence | protein stability index
1 | SVSRIFRTFSCY | 0.668 ± 0.013
2 | SVVYVIYCGGIL | 0.31 ± 0.036
3 | SWFRRPFPPRLL | 0.606 ± 0.052
4 | SWLAQCVVISLL | 0.507 ± 0.029
5 | TALSRLFECFLS | 0.701 ± 0.028
6 | TCGAKWIFSHIC | 0.646 ± 0.022
7 | TFVGWIVWLCGS | 0.487 ± 0.033
8 | TFVLREYVWVMS | 0.254 ± 0.038
9 | TIKGRLNVRKIE | 0.623 ± 0.0085
10 | TPYIFVLACLHV | 0.326 ± 0.013
11 | TRKKENERRKNG | 0.654 ± 0.015
12 | TSFCIFFVRFVI | 0.365 ± 0.022
13 | TVETYNRARKAS | 0.631 ± 0.038
14 | TVVIFLCSYITT | 0.139 ± 0.015
15 | TYNVMFSPWRKA | 0.667 ± 0.032
16 | TYYPLNRSRFIG | 0.635 ± 0.035
17 | VAALFPPLRFLN | 0.653 ± 0.017
18 | VCFAWWGARCVA | 0.468 ± 0.026
19 | VCFFLFWCLSFS | 0.343 ± 0.05
20 | VCLCVIICSMSV | 0.0324 ± 0.008
21 | VCQVCVCFLFWR | 0.145 ± 0.032
22 | VCVVVLVGVVFL | 0.237 ± 0.02
23 | VELRNCYLLVKA | 0.222 ± 0.037
24 | VFFLAFYFYRCF | 0.416 ± 0.015
25 | VFMSVAPVSVLG | 0.198 ± 0.026
26 | VFSAIPDWLILA | 0.387 ± 0.041

Row | Sequence | protein stability index
27 | VFSVTVVFVSVL | 0.192 ± 0.035
28 | VFVGGVSVLILF | 0.438 ± 0.026
29 | VFWLLVGLGCFS | 0.431 ± 0.025
30 | VFYWVGVLCGWG | 0.293 ± 0.026
31 | VGCMVVIWVLWG | 0.19 ± 0.034
32 | VGFCICISIMSF | 0.125 ± 0.025
33 | VGPLAPVCLLVL | 0.36 ± 0.038
34 | VILCSCSFVLRP | 0.373 ± 0.021
35 | VKIEVICRVSLI | 0.403 ± 0.02
36 | VLCFFWWWCRVC | 0.472 ± 0.019
37 | VLFVRGHTLWLM | 0.556 ± 0.024
38 | VLSCIPRLAIAA | 0.284 ± 0.023
39 | VLVVTAFTFSCP | 0.327 ± 0.018
40 | VLVVVRSLSFLS | 0.347 ± 0.025
41 | VNRRCWISRTLP | 0.645 ± 0.024
42 | VPASWLRMLAFC | 0.559 ± 0.024
43 | VRFSAVFVKVGV | 0.395 ± 0.026
44 | VRIGCSLLFFLP | 0.589 ± 0.0067
45 | VRSELHINSFIH | 0.682 ± 0.017
46 | VRTFVFLVGYCE | 0.406 ± 0.027
47 | VRVFSLVVCWVV | 0.262 ± 0.026
48 | VSSSFSVLVLLF | 0.375 ± 0.037
49 | VTLVIYVLVQLT | 0.156 ± 0.044
50 | VTTTWTWTVRLC | 0.54 ± 0.018
51 | VVAALTPLITVA | 0.183 ± 0.021
52 | VVLAFFFWFFVG | 0.383 ± 0.034

Row | Sequence | protein stability index
53 | VVLRCGCLVFIN | 0.398 ± 0.023
54 | VVRMRPRLFSLY | 0.687 ± 0.047
55 | VVTFCCARVTKI | 0.622 ± 0.038
56 | VVTFLCPLVGHV | 0.372 ± 0.029
57 | VVWFCGFFFVMV | 0.356 ± 0.036
58 | VWCVFHVWSGRL | 0.42 ± 0.023
59 | VWFVFVCAVCVL | 0.205 ± 0.012
60 | VWGLGWLVVGVG | 0.185 ± 0.023
61 | VWPLAFFLRFFI | 0.529 ± 0.017
62 | VWSSSYVPLGVY | 0.275 ± 0.044
63 | VWWTLWRVHMLG | 0.592 ± 0.018
64 | VYCLFLPLGVAF | 0.184 ± 0.02
65 | VYCLVLFFSQWC | 0.365 ± 0.025
66 | VYFPRLLVRVSW | 0.392 ± 0.029
67 | WAIMGLIIFCLF | 0.3 ± 0.035
68 | WGEAGRPAGRGA | 0.631 ± 0.007
69 | WGFLSVVCLSGV | 0.4 ± 0.024
70 | WGLGWRGALVAV | 0.321 ± 0.033
71 | WGLPVGVESSGG | 0.648 ± 0.028
72 | WGRFFWGCGVWV | 0.6 ± 0.016
73 | WGRGYRWRIWDV | 0.657 ± 0.015
74 | WIGCTVKIASLY | 0.558 ± 0.03
75 | WLCLFRFLGVAY | 0.218 ± 0.033
76 | WLMVGVDWRFVG | 0.57 ± 0.024
77 | WLSWATRRIVLG | 0.57 ± 0.02
78 | WLWYSPIAFTAL | 0.64 ± 0.016

Same assay, conditions: genetic background: das1 deletion; temperature: 37 C

Row | Sequence | protein stability index
79 | SVSRIFRTFSCY | 0.681 ± 0.047
80 | SVVYVIYCGGIL | 0.555 ± 0.019
81 | SWFRRPFPPRLL | 0.67 ± 0.063
82 | SWLAQCVVISLL | 0.662 ± 0.016
83 | TALSRLFECFLS | 0.768 ± 0.01
84 | TCGAKWIFSHIC | 0.772 ± 0.016
85 | TFVGWIVWLCGS | 0.6164 ± 0.0052
86 | TFVLREYVWVMS | 0.443 ± 0.0057
87 | TIKGRLNVRKIE | 0.741 ± 0.025
88 | TPYIFVLACLHV | 0.5039 ± 0.0042
89 | TRKKENERRKNG | 0.71 ± 0.025
90 | TSFCIFFVRFVI | 0.50904 ± 0.00041
91 | TVETYNRARKAS | 0.7 ± 0.015
92 | TVVIFLCSYITT | 0.298 ± 0.008
93 | TYNVMFSPWRKA | 0.774 ± 0.0098
94 | TYYPLNRSRFIG | 0.7616 ± 0.0049
95 | VAALFPPLRFLN | 0.734 ± 0.014
96 | VCFAWWGARCVA | 0.6475 ± 0.0032
97 | VCFFLFWCLSFS | 0.4916 ± 0.00098
98 | VCLCVIICSMSV | 0.0699 ± 0.011
99 | VCQVCVCFLFWR | 0.181 ± 0.0077
100 | VCVVVLVGVVFL | 0.3828 ± 0.0025
101 | VELRNCYLLVKA | 0.381 ± 0.013
102 | VFFLAFYFYRCF | 0.545 ± 0.0085
103 | VFMSVAPVSVLG | 0.2589 ± 0.00033
104 | VFSAIPDWLILA | 0.5492 ± 0.0043

Row | Sequence | protein stability index
105 | VFSVTVVFVSVL | 0.383 ± 0.014
106 | VFVGGVSVLILF | 0.602 ± 0.0081
107 | VFWLLVGLGCFS | 0.572 ± 0.0075
108 | VFYWVGVLCGWG | 0.4352 ± 0.0014
109 | VGCMVVIWVLWG | 0.313 ± 0.013
110 | VGFCICISIMSF | 0.214 ± 0.023
111 | VGPLAPVCLLVL | 0.516 ± 0.013
112 | VILCSCSFVLRP | 0.57243 ± 0.00022
113 | VKIEVICRVSLI | 0.495 ± 0.043
114 | VLCFFWWWCRVC | 0.583 ± 0.044
115 | VLFVRGHTLWLM | 0.702 ± 0.025
116 | VLSCIPRLAIAA | 0.404 ± 0.008
117 | VLVVTAFTFSCP | 0.416 ± 0.022
118 | VLVVVRSLSFLS | 0.534 ± 0.015
119 | VNRRCWISRTLP | 0.713 ± 0.012
120 | VPASWLRMLAFC | 0.701 ± 0.047
121 | VRFSAVFVKVGV | 0.5703 ± 0.0032
122 | VRIGCSLLFFLP | 0.6934 ± 0.0062
123 | VRSELHINSFIH | 0.741 ± 0.017
124 | VRTFVFLVGYCE | 0.614 ± 0.023
125 | VRVFSLVVCWVV | 0.441 ± 0.0051
126 | VSSSFSVLVLLF | 0.571 ± 0.013
127 | VTLVIYVLVQLT | 0.259 ± 0.0037
128 | VTTTWTWTVRLC | 0.656 ± 0.034
129 | VVAALTPLITVA | 0.202 ± 0.0041
130 | VVLAFFFWFFVG | 0.507 ± 0.011

Row | Sequence | protein stability index
131 | VVLRCGCLVFIN | 0.6443 ± 0.0057
132 | VVRMRPRLFSLY | 0.816 ± 0.025
133 | VVTFCCARVTKI | 0.665 ± 0.01
134 | VVTFLCPLVGHV | 0.546 ± 0.012
135 | VVWFCGFFFVMV | 0.509 ± 0.016
136 | VWCVFHVWSGRL | 0.6175 ± 0.0012
137 | VWFVFVCAVCVL | 0.3464 ± 0.003
138 | VWGLGWLVVGVG | 0.284 ± 0.012
139 | VWPLAFFLRFFI | 0.682 ± 0.017
140 | VWSSSYVPLGVY | 0.443 ± 0.0067
141 | VWWTLWRVHMLG | 0.7151 ± 0.0031
142 | VYCLFLPLGVAF | 0.248 ± 0.0082
143 | VYCLVLFFSQWC | 0.543 ± 0.016
144 | VYFPRLLVRVSW | 0.508 ± 0.0082
145 | WAIMGLIIFCLF | 0.438 ± 0.015
146 | WGEAGRPAGRGA | 0.745 ± 0.018
147 | WGFLSVVCLSGV | 0.533 ± 0.015
148 | WGLGWRGALVAV | 0.4845 ± 0.0034
149 | WGLPVGVESSGG | 0.761 ± 0.0095
150 | WGRFFWGCGVWV | 0.725 ± 0.0095
151 | WGRGYRWRIWDV | 0.7901 ± 0.0042
152 | WIGCTVKIASLY | 0.693 ± 0.012
153 | WLCLFRFLGVAY | 0.3 ± 0.0097
154 | WLMVGVDWRFVG | 0.7086 ± 0.0033
155 | WLSWATRRIVLG | 0.605 ± 0.018
156 | WLWYSPIAFTAL | 0.778 ± 0.02

Source: the supplement of paper PMC10724198
